Data on six molecules can be found in US20170088605A1 (Novartis, published 2017).

Assay [1] deals with T1, BKV serotype II chimeric infectious virus (VP1 of isolate SB) (BK virus serotype II). Kind of assay: cell-based or functional assay.
The target in assay [2] is BKV serotype IV chimeric infectious virus (VP1 of strain ITA-4) (BK virus serotype IV). Nature of the assay: cell-based or functional assay.
Assay [3] concerns the target T2, BKV serotype I infectious virus (VP1) (BK virus serotype I, UniProt P03088 1-362).
T2 sequence (looked up): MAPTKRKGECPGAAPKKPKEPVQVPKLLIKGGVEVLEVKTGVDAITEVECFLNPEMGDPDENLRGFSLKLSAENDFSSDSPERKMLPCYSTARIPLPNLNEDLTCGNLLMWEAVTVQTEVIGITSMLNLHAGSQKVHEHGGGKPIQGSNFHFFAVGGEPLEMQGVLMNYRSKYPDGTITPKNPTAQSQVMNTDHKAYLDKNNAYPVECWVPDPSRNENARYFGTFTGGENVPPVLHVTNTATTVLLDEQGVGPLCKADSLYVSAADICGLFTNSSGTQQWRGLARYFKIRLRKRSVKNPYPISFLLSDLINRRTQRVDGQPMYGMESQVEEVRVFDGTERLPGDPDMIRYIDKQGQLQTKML
Kind of assay: cell-based or functional assay.

Assay [4] deals with BKV serotype III chimeric infectious virus (VP1 of isolate AS) (BK virus serotype III). Kind of assay: cell-based or functional assay.
The target of assay [5] is T1, BKV serotype II chimeric infectious …. Kind of assay: cell-based or functional assay. The source holds these as a separate data set.
For assay [6], the target named is JCV infectious virus, isolates Mad-1 and Mad-4 (VP1) (JC virus). Nature of the assay: cell-based or functional assay.
In assay [7] the target is pooled RAV virus (BKV serotype I, 20 amino acid changes throughout VP1) (BK virus serotype I). Nature of the assay: cell-based or functional assay.
The target in assay [8] is T3, BKV serotype I VP1 pentamer (BK virus serotype I, UniProt P03088 30-297).
T3 construct: also called serotype I pentamers; BKV-VP1 serotype I pentameric protein
Nature of the assay: SET (solution equilibrium titration) on VP1 pentamers.

In assay [9] the target is T4, BKV serotype IV VP1 pentamer (BK virus serotype IV, UniProt P14996 30-297).
T4 construct: also called serotype IV pentamers
The assay is described as above.

The target of assay [10] is T5, BKV serotype III VP1 pentamer (BK virus serotype III, UniProt P14996 30-297).
T5 construct: also called serotype III pentamers
The description is as above.

Assay [11] addresses T6, BKV serotype II VP1 pentamer (BK virus serotype II, UniProt P14996 30-297).
T6 construct: also called serotype II pentamers
The assay is described as above.

Positions count from the first letter of the chain named.

B1: NEG447A (antibody, human IgG1, lambda, V domains shown)
VH: QVQLQESGPGLVKPSETLSLTCTVSGGSISRDYWSWVRQPPGAGLEWIGNIYYSGSTNYNPSLKSRVTISVATNKKQFSLKLTSVTAADTAVYYCARVPGCSSTSCIDGWFDPWGQGILVTVSS
VL: QSVLTQPPSVSAAPGQKVTISCSGSSSNIGNTYVSWYQQLPGTAPKLLIYDNNKRPSGIPDRFSGSKSGTSATLGITGLQTGDEADYYCGTWDSSLSAWVFGGGTRLTVLG
B1: in [1], the “activity (EC90), fold more potent than NEG447” value is about 8 fold. Also, the “neutralization EC50” value is 0.011 µg/mL in assay [2], 0.0001 µg/mL in [3], over 100 µg/mL in assay [4] and 0.11 µg/mL in [5]. Also, the “neutralization EC90” value in [2] was 0.26 µg/mL; in assay [3] it was 0.094 µg/mL; in assay [4] it was over 100 µg/mL; in [5], 0.84 µg/mL.

B2: P8D11 (antibody, human IgG1, lambda)
heavy: not shown
light: QSVLTQPPSVSVAPGKTARITCGGDNIGSRPVHWYQQKPGQAPILVVYDDSNRPSGIPERFSGSNSGNTATLTISRVEAGDEADYYCQVWSSSTDHPFGGGTKVTVLGQPKAAPSVTLFPPSSEELQANKATLVCLISDFYPGAVTVAWKADSSPVKAGVETTTPSKQSNNKYAASSYLSLTPEQWKSHRSYSCQVTHEGSTVEKTVAPTECS
In the case of B2, the “neutralization EC50” value in assay [2] is 0.023 µg/mL; in assay [6], 0.09 µg/mL; in assay [3], 0.015 µg/mL; in assay [4], 0.092 µg/mL; in assay [5], 0.089 µg/mL. The “neutralization EC90” value is 0.39 µg/mL in assay [2]; 2.76 µg/mL in assay [6]; 0.24 µg/mL in [3]; 0.53 µg/mL in assay [4]; 6.34 µg/mL in assay [5]. Also, the “EC50 of neutralization, fold change against wild-type virus” value in assay [7] is 3.9 fold.

B3: P8D11C (antibody, V domains shown)
VH: QVQLVESGGTLVQPGGSLRLSCAASGFTFQNYWMTWVRQAPGKGLEWVANIKKDGSEKYYVDSVRGRFTISRDNAKNSLFLQMNSLRPEDTAVYFCATVRSGRYFALDDWGQGTLVTVSS
VL: QSVLTQPPSVSVAPGKTARITCGGDNIGSRPVHWYQQKPGQAPILVVYDDSNRPSGIPERFSGSNSGNTATLTISRVEAGDEADYYCQVWSSSTDHPFGGGTKVTVLG
Regarding B3, the “neutralization EC50” value worked out at 0.005 µg/mL in assay [2], 0.0003 µg/mL in assay [3], 0.049 µg/mL in assay [4] and 0.18 µg/mL in assay [5]. The “neutralization EC90” value came to 0.54 µg/mL in assay [2], 0.34 µg/mL in assay [3], 0.51 µg/mL in assay [4] and 0.5 µg/mL in assay [5]. Further, the Kd in assay [8] was determined as 4.5 pM; in assay [9] it was 2.7 pM; in [10], 4.8 pM; in [11] it was 2.7 pM.

B4: P8D11B (antibody, V domains shown)
VH: B3 VH with Q30K
VL: B3 VL
As for B4, the “neutralization EC50” value in assay [2] is 0.005 µg/mL; in assay [3] it was 0.003 µg/mL; in [4], 0.014 µg/mL; in assay [5], 0.088 µg/mL. For the same molecule, the “neutralization EC90” value in [2] was found to be 0.54 µg/mL; in assay [3] it was 0.3 µg/mL; in assay [4] it was 0.5 µg/mL; in assay [5] it was 1.93 µg/mL. Besides, the Kd in [8] was determined as 3.8 pM; in assay [9] it was 2.9 pM; in assay [10], 2.5 pM; in assay [11], 1.8 pM.

B5: P8D11A (antibody, V domains shown)
VH: B3 VH with Q30S
VL: B3 VL
For the molecule B5, the “neutralization EC50” value came to 0.015 µg/mL in assay [2], 0.005 µg/mL in assay [3], 0.01 µg/mL in [4] and 0.029 µg/mL in [5]. The “neutralization EC90” value in [2] came out at 0.064 µg/mL; in [3], 0.19 µg/mL; in assay [4], 0.59 µg/mL; in [5], 8.68 µg/mL. Besides, the equilibrium dissociation constant (Kd) in assay [8] turned out to be 4.4 pM; in assay [9] it was 2.9 pM; in [10], 3.7 pM; in assay [11] it was 2.5 pM.

B6: P8D11E (antibody)
heavy: not shown
light: B2 light
As to B6, the “neutralization EC50” value in assay [2] was determined as 0.002 µg/mL; in assay [3], 0.032 µg/mL; in [4], 0.236 µg/mL; in assay [5], 0.144 µg/mL. For the same molecule, the “neutralization EC90” value in assay [2] worked out at 0.087 µg/mL; in [3], 0.11 µg/mL; in [4], 0.9 µg/mL; in [5], 2.52 µg/mL. Moreover, the Kd amounted to 4.3 pM in assay [8], 2.7 pM in assay [9], 6 pM in [10] and 1.7 pM in [11].
